Key:
[1] = molecular target: the molecule itself; experiment: cross-linking; time-dependent cross-linking of TRIM72 WT purified from mammalian cells (copurified with endogenous microvesicles)
[2] = molecular target: the molecule itself; experiment: SEC-MALS; Superdex 200 Increase 10/300 GL; 50 mM Tris-HCl pH 8.0, 300 mM NaCl, 2 mM TCEP; TRIM72 WT at 11.2, 5.6 and 2.8 mg/ml; dimer in solution
[3] = molecular target: the molecule itself; experiment: cryo-EM structure; cryo-ET and subtomogram averaging of proteoliposomes (80 mol% DOPS, 20 mol% cholesterol); 50 mM Tris-HCl pH 8.0, 150 mM NaCl, 1 mM TCEP; higher-order assembly of dimers on the lipid bilayer

B1: human TRIM72 wild type, 2× Strep-tagged (natural protein, UniProt Q6ZMU5 1-477, looked up)
chain: MSAAPGLLHQELSCPLCLQLFDAPVTAECGHSFCRACLGRVAGEPAADGTVLCPCCQAPTRPQALSTNLQLARLVEGLAQVPQGHCEEHLDPLSIYCEQDRALVCGVCASLGSHRGHRLLPAAEAHARLKTQLPQQKLQLQEACMRKEKSVAVLEHQLVEVEETVRQFRGAVGEQLGKMRVFLAALEGSLDREAERVRGEAGVALRRELGSLNSYLEQLRQMEKVLEEVADKPQTEFLMKYCLVTSRLQKILAESPPPARLDIQLPIISDDFKFQVWRKMFRALMPALEELTFDPSSAHPSLVVSSSGRRVECSEQKAPPAGEDPRQFDKAVAVVAHQQLSEGEHYWEVDVGDKPRWALGVIAAEAPRRGRLHAVPSQGLWLLGLREGKILEAHVEAKEPRALRSPERRPTRIGLYLSFGDGVLSFYDASDADALVPLFAFHERLPRPVYPFFDVCWHDKGKNAQPLLLVGPEGAEA
notes: TRIM72 (MG53), human, wild type, full length; Copurified with endogenous microvesicles of about 100 nm; also called TRIM72 WT purified from mammalian cells; mammalian-expressed human TRIM72; source: HEK293T, transfected (polyethyleneimine), purified (StrepTrap HP, SEC on Superose 6 Increase)
- binding result [1]: binds

B2: mouse TRIM72 wild type (tripartite motif-containing protein 72) (natural protein, UniProt Q1XH17 1-477, looked up)
chain: MSAAPGLLRQELSCPLCLQLFDAPVTAECGHSFCRACLIRVAGEPAADGTVACPCCQAPTRPQALSTNLQLSRLVEGLAQVPQGHCEEHLDPLSIYCEQDRTLVCGVCASLGSHRGHRLLPAAEAQARLKTQLPQQKMQLQEACMRKEKTVAVLEHQLVEVEETVRQFRGAVGEQLGKMRMFLAALESSLDREAERVRGDAGVALRRELSSLNSYLEQLRQMEKVLEEVADKPQTEFLMKFCLVTSRLQKILSESPPPARLDIQLPVISDDFKFQVWKKMFRALMPALEELTFDPSSAHPSLVVSSSGRRVECSDQKAPPAGEDTRQFDKAVAVVAQQLLSQGEHYWEVEVGDKPRWALGVMAADASRRGRLHAVPSQGLWLLGLRDGKILEAHVEAKEPRALRTPERPPARIGLYLSFADGVLAFYDASNPDVLTPIFSFHERLPGPVYPIFDVCWHDKGKNAQPLLLVGPEQEQA
notes: TRIM72 (MG53), Mus musculus, wild type, full length; Tight dimer in solution by SEC-MALS; higher-order assembly only on PS liposomes; also called TRIM72 WT; MG53; source: E. coli BL21(DE3), purified (AC, IEX, SEC); not shown: His6, N-terminal, cleaved; MBP, N-terminal, cleaved
- stoichiometry N [2]: 2

B3: mouse TRIM72^M138R (natural protein, UniProt Q1XH17 1-477, looked up)
chain: MSAAPGLLRQELSCPLCLQLFDAPVTAECGHSFCRACLIRVAGEPAADGTVACPCCQAPTRPQALSTNLQLSRLVEGLAQVPQGHCEEHLDPLSIYCEQDRTLVCGVCASLGSHRGHRLLPAAEAQARLKTQLPQQKRQLQEACMRKEKTVAVLEHQLVEVEETVRQFRGAVGEQLGKMRMFLAALESSLDREAERVRGDAGVALRRELSSLNSYLEQLRQMEKVLEEVADKPQTEFLMKFCLVTSRLQKILSESPPPARLDIQLPVISDDFKFQVWKKMFRALMPALEELTFDPSSAHPSLVVSSSGRRVECSDQKAPPAGEDTRQFDKAVAVVAQQLLSQGEHYWEVEVGDKPRWALGVMAADASRRGRLHAVPSQGLWLLGLRDGKILEAHVEAKEPRALRTPERPPARIGLYLSFADGVLAFYDASNPDVLTPIFSFHERLPGPVYPIFDVCWHDKGKNAQPLLLVGPEQEQA
notes: TRIM72, Mus musculus, mutation on the outer side of the H1 helix of the coiled-coil domain; source: E. coli BL21(DE3), purified (AC, IEX, SEC); not shown: His6, N-terminal, cleaved; MBP, N-terminal, cleaved
- binding result [3]: binds
